From patent publication US20220389394A1 (Gilead, published 2022)
Residue numbers refer to the chain shown, from its start. In names and notes the source's numbering stands. Like-named read-outs stand apart in the source and are kept apart here. Blank lines part the entries; values can stand above or below the binder they belong to.

How the values were obtained:
recombinant human FcRn [1] = biological target: T1, recombinant human FcRn (human, UniProt P55899 24-297; P61769 21-119, limits assumed); assay: ELISA; recombinant human FcRn coated, serially diluted test article, anti-human (H+L)-HRP, 4PL fit; estimate, no saturating signal
T1 construct: a beta-2-microglobulin chain is not mentioned; also called human recombinant FcRn
Description: (§1) Graph is a result of one experiment. Experiment was performed in duplicate. Error bars represent standard deviation of the mean values.
(§2) Signal was developed using TMB substrate then quenched prior to reading absorbance at 450-650 nm on a SpectraMax plate reader.

[2] = biological target: T2, human FLT3 on the AML5 cell line (human, UniProt P36888 27-993); assay: cell-based or functional assay
T2 sequence (looked up): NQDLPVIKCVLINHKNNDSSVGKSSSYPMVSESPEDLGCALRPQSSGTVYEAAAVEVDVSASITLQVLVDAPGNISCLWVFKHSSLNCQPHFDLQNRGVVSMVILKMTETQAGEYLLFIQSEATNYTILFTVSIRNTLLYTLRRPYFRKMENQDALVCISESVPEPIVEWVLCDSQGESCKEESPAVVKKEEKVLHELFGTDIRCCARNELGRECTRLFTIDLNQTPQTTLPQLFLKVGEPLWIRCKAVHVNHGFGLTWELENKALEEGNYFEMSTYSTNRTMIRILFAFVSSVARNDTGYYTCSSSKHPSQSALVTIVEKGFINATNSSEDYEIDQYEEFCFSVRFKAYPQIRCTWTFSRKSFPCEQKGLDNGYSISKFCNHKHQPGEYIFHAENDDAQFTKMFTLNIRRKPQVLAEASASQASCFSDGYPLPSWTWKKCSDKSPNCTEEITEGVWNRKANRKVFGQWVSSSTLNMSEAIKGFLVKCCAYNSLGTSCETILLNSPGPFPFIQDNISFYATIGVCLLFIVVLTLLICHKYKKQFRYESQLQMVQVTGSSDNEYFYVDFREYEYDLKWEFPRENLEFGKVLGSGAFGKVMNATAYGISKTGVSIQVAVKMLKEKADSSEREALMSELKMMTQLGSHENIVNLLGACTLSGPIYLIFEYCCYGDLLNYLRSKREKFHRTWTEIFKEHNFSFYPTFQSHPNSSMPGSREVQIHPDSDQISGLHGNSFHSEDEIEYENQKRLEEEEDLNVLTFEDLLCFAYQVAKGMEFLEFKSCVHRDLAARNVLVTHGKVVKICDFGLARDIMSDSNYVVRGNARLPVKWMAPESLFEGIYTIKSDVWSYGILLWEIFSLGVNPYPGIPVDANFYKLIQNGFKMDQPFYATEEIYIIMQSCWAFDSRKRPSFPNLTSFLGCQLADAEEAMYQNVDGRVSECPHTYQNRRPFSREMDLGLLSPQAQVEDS

[3] = biological target: T2, human FLT3 on the AML5 cell line; assay: cell-based or functional assay; remark: listed apart in the source
[4] = biological target: T2, human FLT3 on the AML5 cell line; assay: cell-based or functional assay; remark: listed apart in the source
[5] = biological target: T2, human FLT3 on the AML5 cell line; assay: cell-based or functional assay; remark: listed apart in the source
[6] = biological target: T3, recombinant human C1q protein (Fitzgerald) (human, UniProt P02745 23-245; P02746 28-253; P02747 29-245, limits assumed); assay: ELISA, test article immobilized, C1q added; text: devoid of C1q binding ability
T3 construct: also called human recombinant complement protein, C1q
T3 sequence (P02745 23-245 limits assumed, chain 1 of 3): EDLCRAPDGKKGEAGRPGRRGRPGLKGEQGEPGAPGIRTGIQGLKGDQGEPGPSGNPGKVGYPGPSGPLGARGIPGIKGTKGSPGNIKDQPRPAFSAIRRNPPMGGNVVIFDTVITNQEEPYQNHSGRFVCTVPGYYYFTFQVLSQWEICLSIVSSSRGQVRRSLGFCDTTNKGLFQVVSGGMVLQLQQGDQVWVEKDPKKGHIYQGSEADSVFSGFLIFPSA
T3 sequence (P02746 28-253 limits assumed, chain 2 of 3): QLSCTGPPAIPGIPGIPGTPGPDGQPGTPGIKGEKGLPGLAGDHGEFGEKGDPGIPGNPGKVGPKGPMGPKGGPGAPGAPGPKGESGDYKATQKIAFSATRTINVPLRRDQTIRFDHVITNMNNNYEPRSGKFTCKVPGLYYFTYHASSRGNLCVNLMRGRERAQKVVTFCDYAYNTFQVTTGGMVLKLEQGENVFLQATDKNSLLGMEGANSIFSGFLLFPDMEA
T3 sequence (P02747 29-245 limits assumed, chain 3 of 3): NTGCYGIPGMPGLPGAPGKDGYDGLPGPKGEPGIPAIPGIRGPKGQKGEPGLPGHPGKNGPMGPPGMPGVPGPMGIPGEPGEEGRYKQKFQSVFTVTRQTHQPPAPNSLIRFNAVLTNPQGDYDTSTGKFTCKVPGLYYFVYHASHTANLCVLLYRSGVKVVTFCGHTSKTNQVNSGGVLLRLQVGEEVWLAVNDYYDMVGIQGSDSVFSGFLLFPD

[7] = biological target: T4, his-tagged recombinant human Flt3 receptor (Sino Biologicals) (human, UniProt P36888 27-541, limits assumed); assay: ELISA; His-tagged recombinant human Flt3 on nickel plate, serially diluted Flt3L-Fc, anti-human (H+L)-HRP, 4PL fit
T4 construct: Bought protein; also called human recombinant FLT3; not shown: His tag
T4 sequence (looked up): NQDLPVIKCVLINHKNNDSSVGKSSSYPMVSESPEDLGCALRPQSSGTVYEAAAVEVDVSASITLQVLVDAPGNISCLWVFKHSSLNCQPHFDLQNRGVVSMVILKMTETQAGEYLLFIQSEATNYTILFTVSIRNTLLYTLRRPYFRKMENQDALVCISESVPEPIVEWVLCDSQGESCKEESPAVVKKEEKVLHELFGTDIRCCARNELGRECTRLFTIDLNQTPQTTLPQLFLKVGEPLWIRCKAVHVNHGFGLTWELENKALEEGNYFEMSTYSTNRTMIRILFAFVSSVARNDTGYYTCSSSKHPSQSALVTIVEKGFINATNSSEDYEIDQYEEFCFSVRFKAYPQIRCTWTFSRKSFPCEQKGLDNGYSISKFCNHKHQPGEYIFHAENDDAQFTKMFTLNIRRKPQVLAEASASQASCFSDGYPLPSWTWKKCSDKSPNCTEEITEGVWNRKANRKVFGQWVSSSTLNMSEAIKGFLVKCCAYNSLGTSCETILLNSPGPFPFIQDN
Description: as §1
(§3) Signal was developed using TMB substrate then quenched prior to reading absorbance at 450 nm on a SpectraMax plate reader.

[8] = biological target: T2, human FLT3 on the AML5 cell line; assay: cell-based or functional assay; remark: listed apart in the source
recombinant human FcRn [9] = biological target: T1, recombinant human FcRn; assay: ELISA; recombinant human FcRn coated, serially diluted test article, anti-human (H+L)-HRP, 4PL fit
Description: as §1, §2

[10] = biological target: T4, his-tagged recombinant human Flt3 …; assay: ELISA; His-tagged recombinant human Flt3 on nickel plate, serially diluted Flt3L-Fc, anti-human (H+L)-HRP, 4PL fit; remark: listed apart in the source
Excerpt: Graph is a result of one experiment.
as §3

[11] = biological target: T2, human FLT3 on the AML5 cell line; assay: cell-based or functional assay; remark: listed apart in the source

B1: human FLT3-ligand human hingeless IgG1 fusion protein (SEQ ID NO:1) (Fc fusion)
chain: TQDCSFQHSPISSDFAVKIRELSDYLLQDYPVTVASNLQDEELCGGLWRLVLAQRWMERLKTVAGSKMQGLLERVNTEIHFVTKCAFQPPPSCLRFVQTNISRLLQETSEQLVALKPWITRQNFSRCLELQCQPDSSTLPPPWSPRPLEATAPTAPQGGPSVFLFPPKPKDTLMISRTPEVTCVVVDVSHEDPEVKFNWYVDGVEVHNAKTKPREEQYNSTYRVVSVLTVLHQDWLNGKEYKCKVSNKALPAPIEKTISKAKGQPREPQVYTLPPSREEMTKNQVSLTCLVKGFYPSDIAVEWESNGQPENNYKTTPPVLDSDGSFFLYSKLTVDKSRWQQGNVFSCSVMHEALHNHYTQKSLSLSPGK
notes: also called FLT3L ECD-hingeless hG1; hFLT3L ECD
- EC50 (recombinant human FcRn [1]): ~151 nM
- EC50 (nM), AML5 proliferation [2]: 0.04 nM
- EC50 (nM), AML5 proliferation [3]: 0.078 nM
- EC50 (nM), AML5 proliferation [4]: 0.08 nM
- EC50 (nM), AML5 proliferation [5]: 0.034 nM
- binding result [6]: no binding (tested: 94 nM (highest of the titration))
- EC50 [7]: 0.81 nM
- EC50 (nM), AML5 proliferation [8]: 0.05 nM
- EC50 (recombinant human FcRn [9]): 2330 nM
- EC50 [10]: 0.12 nM

B2: human FLT3-ligand (H8Y+K84E) human hingeless IgG1 fusion protein (SEQ ID NO:24) (Fc fusion)
chain: B1 chain with H8Y, K84E
- EC50 (nM), AML5 proliferation [5]: 0.013 nM
- potency in AML5 proliferation, fold against SEQ ID NO:1 [11]: ~2.5 fold

B4: human FLT3-ligand (H8Y) human hingeless IgG1 fusion protein (SEQ ID NO:22) (Fc fusion)
chain: B1 chain with H8Y
- EC50 (nM), AML5 proliferation [5]: 0.014 nM
- potency in AML5 proliferation, fold against SEQ ID NO:1 [11]: ~2.5 fold

B5: human FLT3-ligand (K84E) human hingeless IgG1 fusion protein (SEQ ID NO:23) (Fc fusion)
chain: B1 chain with K84E
- EC50 (nM), AML5 proliferation [5]: 0.013 nM
- potency in AML5 proliferation, fold against SEQ ID NO:1 [11]: ~2.5 fold

B6: human FLT3-ligand (S128A/S151A) human hingeless IgG1 fusion protein (SEQ ID NO:5) (Fc fusion)
chain: B1 chain with S102A, S125A
notes: also called Aglyco-FLT3L ECD (S128A/S151A) hingeless hG1
- EC50 (recombinant human FcRn [1]): ~133 nM
- EC50 (nM), AML5 proliferation [4]: 0.078 nM
- binding result [6]: no binding (tested: 94 nM (highest of the titration))
- EC50 [10]: 0.11 nM

B7: human FLT3-ligand (Δ5 amino acid) human hingeless IgG1 fusion protein (SEQ ID NO:2) (Fc fusion)
chain: TQDCSFQHSPISSDFAVKIRELSDYLLQDYPVTVASNLQDEELCGGLWRLVLAQRWMERLKTVAGSKMQGLLERVNTEIHFVTKCAFQPPPSCLRFVQTNISRLLQETSEQLVALKPWITRQNFSRCLELQCQPDSSTLPPPWSPRPLEATAGGPSVFLFPPKPKDTLMISRTPEVTCVVVDVSHEDPEVKFNWYVDGVEVHNAKTKPREEQYNSTYRVVSVLTVLHQDWLNGKEYKCKVSNKALPAPIEKTISKAKGQPREPQVYTLPPSREEMTKNQVSLTCLVKGFYPSDIAVEWESNGQPENNYKTTPPVLDSDGSFFLYSKLTVDKSRWQQGNVFSCSVMHEALHNHYTQKSLSLSPGK
notes: also called FLT3L ECD (Δ C-term 5aa (PTAPQ)) - hingeless hG1
- EC50 (recombinant human FcRn [1]): ~300 nM
- EC50 (nM), AML5 proliferation [4]: 0.083 nM
- binding result [6]: no binding (tested: 94 nM (highest of the titration))
- EC50 [10]: 0.13 nM

Second part, led by results:

- EC50 (nM), AML5 proliferation [2]: 0.035 nM
B3: human FLT3-ligand human IgG1 fusion protein (SEQ ID NO:21) (Fc fusion)
chain: B1 chain with L273K, T288S, P317V, F327R, Y329A, K331Y

- EC50 (nM), AML5 proliferation [3]: 0.171 nM
B8: mouse FLT3-ligand mouse IgG2a (LALA-PG) fusion protein (SEQ ID NO:19) (Fc fusion)
chain: TPDCYFSHSPISSNFKVKFRELTDHLLKDYPVTVAVNLQDEKHCKALWSLFLAQRWIEQLKTVAGSKMQTLLEDVNTEIHFVTSCTFQPLPECLRFVQTNISHLLKDTCTQLLALKPCIGKACQNFSRCLEVQCQPDSSTLLPPRSPIALEATELPEPRGPTIKPCPPCKCPAPNAAGGPSVFIFPPKIKDVLMISLSPIVTCVVVDVSEDDPDVQISWFVNNVEVHTAQTQTHREDYNSTLRVVSALPIQHQDWMSGKEFKCKVNNKDLGAPIERTISKPKGSVRAPQVYVLPPPEEEMTKKQVTLTCMVTDFMPEDIYVEWTNNGKTELNYKNTEPVLDSDGSYFMYSKLRVEKKNWVERNSYSCSVVHEGLHNHHTTKSFSRTPGK

- EC50 (nM), AML5 proliferation [3]: 0.115 nM
B9: mouse FLT3-ligand mouse IgG2a (C136S LALA-PG) fusion protein (SEQ ID NO:20) (Fc fusion)
chain: B8 chain with C109S

- EC50 (recombinant human FcRn [1]): ~158 nM
- EC50 (nM), AML5 proliferation [4]: 0.071 nM
- EC50 [10]: 0.12 nM
B10: human FLT3-ligand (Δ10 amino acid) human hingeless IgG1 fusion protein (SEQ ID NO:7) (Fc fusion)
chain: TQDCSFQHSPISSDFAVKIRELSDYLLQDYPVTVASNLQDEELCGGLWRLVLAQRWMERLKTVAGSKMQGLLERVNTEIHFVTKCAFQPPPSCLRFVQTNISRLLQETSEQLVALKPWITRQNFSRCLELQCQPDSSTLPPPWSPRPGGPSVFLFPPKPKDTLMISRTPEVTCVVVDVSHEDPEVKFNWYVDGVEVHNAKTKPREEQYNSTYRVVSVLTVLHQDWLNGKEYKCKVSNKALPAPIEKTISKAKGQPREPQVYTLPPSREEMTKNQVSLTCLVKGFYPSDIAVEWESNGQPENNYKTTPPVLDSDGSFFLYSKLTVDKSRWQQGNVFSCSVMHEALHNHYTQKSLSLSPGK
- binding result [6]: no binding (tested: 94 nM (highest of the titration))
